Laboratory results taken from doi:10.1101/2023.11.28.569006.

Legend:
[1] = target: artificial chaperone ADGroEL_SacSm (complete heptameric ring) (not stated | Sulfolobus acidocaldarius); assay: pull-down
[2] = target: hetero-oligomers with three or more ADGroEL_SacSm in their composition; assay: pull-down

B1: denatured alpha-Lactalbumin (αLA) (natural protein)
chain: EQLTKCEVFRELKDLKGYGGVSLPEWVCTTFHTSGYDTQAIVQNNDSTEYGLFQINNKIWCKDDQNPHSSNICNISCDKFLDDDLTDDIMCVKKILDKVGINYWLAHKALCSEKLDQWLCEKL
stoichiometry N (αLA molecules per complete ring) [1]: 4
stoichiometry N (αLA per ADGroEL) [2]: 0.5
